Test results taken from the supplement of paper PMC7125110.
± gives the standard error. For part of these data: This sample holds only a part of the variants without activity.

B1: glmS ribozyme (parent)
chain: AUAAAAGCGCCAGAACUACAGAAAUGUAGUUGACGAGGAGGAGGUUUAUCGAAUUUUCGGCGGAUGCCUCCAAA

Assays:
Settings in all cases: with glucosamine-6-phosphate
glucosamine-6-phosphate [1] = variants of: B1; test: kcat; higher = faster cleavage; RNA array
In short: (§1)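 Using a hybridised Cy3 probe at 37 °C, barcoded ribozyme variants transcribed in situ by E. coli RNA polymerase on sequenced MiSeq chips were monitored across tiles imaged over ~14 h. The flow contained glucosamine-6-phosphate from 40 μM to 10 mM in HEPES/KCl/Mg(OAc)2 buffer. Signals were normalised to baseline and to non-cleaving reference variants before per-tile medians were fit to one- or two-exponential decays to yield kobs. Weighted Michaelis–Menten fits across concentrations gave kcat and KM.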

glucosamine-6-phosphate [2] = variants of: B1; test: self-cleavage kobs at 160 uM GlcN6P; higher = faster cleavage; RNA array
In short: as §1

glucosamine-6-phosphate [3] = variants of: B1; test: self-cleavage kobs at 640 uM GlcN6P; higher = faster cleavage; RNA array
In short: as §1

glucosamine-6-phosphate [4] = variants of: B1; test: self-cleavage kobs at 40 uM GlcN6P; higher = faster cleavage; RNA array
In short: as §1

glucosamine-6-phosphate [5] = variants of: B1; test: KM; higher = weaker cofactor use; RNA array
In short: as §1

glucosamine-6-phosphate [6] = variants of: B1; test: self-cleavage kobs at 2500 uM GlcN6P; higher = faster cleavage; RNA array
In short: as §1

glucosamine-6-phosphate [7] = variants of: B1; test: self-cleavage kobs at 10000 uM GlcN6P; higher = faster cleavage; RNA array
In short: as §1

| Variant | kcat (glucosamine-6-phosphate [1]) [s⁻¹] | self-cleavage kobs at 160 uM GlcN6P (glucosamine-6-phosphate [2]) [s⁻¹] | self-cleavage kobs at 640 uM GlcN6P (glucosamine-6-phosphate [3]) [s⁻¹] | self-cleavage kobs at 40 uM GlcN6P (glucosamine-6-phosphate [4]) [s⁻¹] | KM (glucosamine-6-phosphate [5]) [µM] | self-cleavage kobs at 2500 uM GlcN6P (glucosamine-6-phosphate [6]) [s⁻¹] | self-cleavage kobs at 10000 uM GlcN6P (glucosamine-6-phosphate [7]) [s⁻¹] |
| --- | --- | --- | --- | --- | --- | --- | --- |
| G35A C71G | < 1e-05 | < 1e-05 | < 1e-05 | – | – | – | – |
| C34G G63U C68G | 2.21e-05 ± 7.4e-06 | – | – | – | – | – | – |
| G32C C50G | 5.17e-05 ± 1.5e-05 | – | 6.25e-05 ± 2e-05 | 4.21e-05 ± 1.5e-05 | – | – | – |
| G32U C71U | 0.00136 ± 0.0003 | 6.14e-05 ± 1.3e-05 | 0.000146 ± 1.1e-05 | – | 5540 ± 1700 | 0.00037 ± 3.3e-05 | 0.000927 ± 7.7e-05 |
| G32U C71G | 0.000107 ± 7.3e-06 | – | 6.13e-05 ± 1.6e-05 | – | 741 ± 280 | 7.51e-05 ± 9.8e-06 | 0.000102 ± 8.2e-06 |
| G32A C67U | 0.000858 ± 0.0002 | 7.5e-05 ± 1.5e-05 | 0.00023 ± 2.1e-05 | – | 1940 ± 760 | 0.000374 ± 4.7e-05 | 0.000854 ± 8.5e-05 |
| G32A G41U | 0.000608 ± 0.00022 | – | 5.48e-05 ± 9e-06 | – | – | 0.000125 ± 2e-05 | 0.00037 ± 5.5e-05 |
| A36C C71A | < 1e-05 | – | – | – | – | – | – |
| A36C C71G | 1.27e-05 ± 2.5e-06 | – | – | – | – | – | – |
| G37A U47G | 0.000419 ± 0.0001 | 9.69e-05 ± 1.9e-05 | 0.000127 ± 1.6e-05 | – | 1250 ± 600 | 0.000274 ± 4.4e-05 | 0.000396 ± 5.4e-05 |
| G37A U47C | 0.000634 ± 0.00022 | 8.31e-05 ± 2.2e-05 | 0.000181 ± 3.8e-05 | – | – | 0.000398 ± 7.7e-05 | 0.00103 ± 0.00045 |
| G32A U65A | 0.000307 ± 0.0001 | – | 5.66e-05 ± 1.2e-05 | – | – | 0.000104 ± 1.4e-05 | 0.000243 ± 4.4e-05 |
| A36U C67U | < 1e-05 | – | – | – | – | – | – |
| A36U U69C | 2.28e-05 ± 3.7e-06 | – | – | – | – | – | – |
| G37A G66C | 0.000578 ± 0.0001 | 4.54e-05 ± 1.4e-05 | 0.000117 ± 1.8e-05 | – | 2250 ± 630 | 0.000357 ± 5.8e-05 | 0.000439 ± 8.7e-05 |
| G32C A48U | < 1e-05 | – | – | < 1e-05 | – | – | – |
| G32A A64G | 0.00438 ± 0.00041 | 0.000104 ± 1.8e-05 | 0.000433 ± 5.6e-05 | 2.33e-05 ± 9.5e-06 | 6200 ± 820 | 0.00144 ± 0.00035 | 0.00267 ± 0.00027 |
| A33U U54A | 0.000116 ± 2e-05 | – | 6.35e-05 ± 1.7e-05 | – | – | 7.03e-05 ± 1.2e-05 | 0.000117 ± 1.6e-05 |
| A33U U54G | 0.000139 ± 4.4e-05 | < 1e-05 | 4.57e-05 ± 1.6e-05 | < 1e-05 | – | 5.67e-05 ± 9.8e-06 | 0.000111 ± 1.8e-05 |
